B1: untagged SPD-5 amino acids 135-473, phosphorylated by PLK1, P91349 S170A; T178A; T198A (protein)
chain: MQSRIETSEDNFARQMKEFEAQKHAMEERIKELELAATDANNTAVGSFRGTLDDILKKNDPDFALTSGYEERKINDLEAKLLSEIDKVAELEDHIQQLRQELDDQSARLADSENVRAQLEAATGQGILGAAGNAMVPNSTFMIGNGRESQTRDQLNYIDDLETKLADAKKENDKARQALVEYMNKCSKLEHEIRTMVKNSTFDSSSMLLGGQTSDELKIQIGKVNGELNVLRAENRELRIRCDQLTGGDGNLSISLGQSRLMAGIATNDVDSIGQGNETGGTSMRILPRESQLDDLEESKLPLMDTSSAVRNQQQFASMWEDFESVKDSLQNNHNDTLE
B2: untagged SPD-5 amino acids 135-473, phosphorylated by PLK1, P91349 T274A; T335A; S339A; S340A (protein)
chain: B1 chain with A36S, A44T, A64T, T140A, T201A, S205A, S206A
B3: untagged SPD-5 amino acids 135-473, phosphorylated by PLK1, P91349 S170A; T178A; T198A; T274A; T335A; S339A; S340A (protein)
chain: B1 chain with T140A, T201A, S205A, S206A
B4: untagged SPD-5 amino acids 135-473, not phosphorylated, P91349 S170A; T178A; T198A (protein)
chain: B1 chain
B5: untagged SPD-5 amino acids 135-473, not phosphorylated, P91349 S170A; T178A; T198A; T274A; T335A; S339A; S340A (protein)
chain: B1 chain with T140A, T201A, S205A, S206A
B6: untagged SPD-5 amino acids 135-473, not phosphorylated, P91349 T274A; T335A; S339A; S340A (protein)
chain: B1 chain with A36S, A44T, A64T, T140A, T201A, S205A, S206A

Residue numbers refer to the chain shown, from its start. Numbers in names are those of the source.

One assay addresses reconstituted C. elegans γ-tubulin complex (γTuC): γ-tubulin^TBG-1, GCP2^GIP-2-5Myc, GCP3^GIP-1 and MZT-1, P34475;G5EF84. The assay can be described thus: γTuC pull-down (γTuC-coated Myc beads), anti-SPD-5 immunoblot band intensity. The note with it: chain shown with the change; +PLK1 preincubation (500 nM PLK1(T194D), 2.0 μM fragment, 1 hour at 23°C); binding 2 hours at 4°C, SPD-5 fragment 75 nM; scale: band intensity relative to SPD-5 135-473 without PLK1.
B1 showed a response of 0.1.
Turning to B2, the response is 2.8.
Regarding B3, the response stood at 0.

Staying with this assay, now noted: chain shown with the change; no PLK1; binding 2 hours at 4°C, SPD-5 fragment 75 nM; scale: band intensity relative to SPD-5 135-473 without PLK1.
Turning to B4, the response was 0.7.
For B5, the response came to 0.1.
Still for that read-out and setting: the value for B6 was 0.1.
